Results on 2 molecules are retold here after PMC2605743, “Lipid bilayer composition influences small multidrug transporters” (BMC Biochemistry, 2008).

Data set [1] deals with C[n+]1ccc(-c2cc[n+](C)cc2)cc1. The experiment in a line: purified protein. The following applies: labelled compound; DOPC liposomes without added DOPG; pH gradient (inside 7.5, outside 8); saturation incomplete, estimate.
The next data set concerns the target T1, EmrE (Escherichia coli, UniProt P23895).
T1 construct: dimer by TPP stoichiometry
In words: isothermal titration calorimetry. The class given is binding. A general note: In ITC the heat of successive injections is recorded.

T1 sequence (P23895 whole entry): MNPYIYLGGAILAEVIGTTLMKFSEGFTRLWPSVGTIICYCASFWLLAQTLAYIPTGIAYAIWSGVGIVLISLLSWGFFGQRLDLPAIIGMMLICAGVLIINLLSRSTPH

The term Km denotes the concentration of substrate that gives half-maximal velocity. What is called Vmax is the top rate of the reaction or transport when substrate is in excess. Turning to EmrE (Escherichia coli K-12), in data set [1], the Km was 1100 ± 500 µM and the Vmax is 2 µmol/min. In general, Kd refers to the equilibrium constant for the complex coming apart. The low end stands for higher affinity, the high end for lower affinity. In turn, `c1ccc([P+](c2ccccc2)(c2ccccc2)c2ccccc2)cc1` [TPP] gave a Kd at EmrE of 36 nM.
